# T1: human KCNQ3/KvLR2 (human, UniProt O43525 25-872)
# T1 sequence: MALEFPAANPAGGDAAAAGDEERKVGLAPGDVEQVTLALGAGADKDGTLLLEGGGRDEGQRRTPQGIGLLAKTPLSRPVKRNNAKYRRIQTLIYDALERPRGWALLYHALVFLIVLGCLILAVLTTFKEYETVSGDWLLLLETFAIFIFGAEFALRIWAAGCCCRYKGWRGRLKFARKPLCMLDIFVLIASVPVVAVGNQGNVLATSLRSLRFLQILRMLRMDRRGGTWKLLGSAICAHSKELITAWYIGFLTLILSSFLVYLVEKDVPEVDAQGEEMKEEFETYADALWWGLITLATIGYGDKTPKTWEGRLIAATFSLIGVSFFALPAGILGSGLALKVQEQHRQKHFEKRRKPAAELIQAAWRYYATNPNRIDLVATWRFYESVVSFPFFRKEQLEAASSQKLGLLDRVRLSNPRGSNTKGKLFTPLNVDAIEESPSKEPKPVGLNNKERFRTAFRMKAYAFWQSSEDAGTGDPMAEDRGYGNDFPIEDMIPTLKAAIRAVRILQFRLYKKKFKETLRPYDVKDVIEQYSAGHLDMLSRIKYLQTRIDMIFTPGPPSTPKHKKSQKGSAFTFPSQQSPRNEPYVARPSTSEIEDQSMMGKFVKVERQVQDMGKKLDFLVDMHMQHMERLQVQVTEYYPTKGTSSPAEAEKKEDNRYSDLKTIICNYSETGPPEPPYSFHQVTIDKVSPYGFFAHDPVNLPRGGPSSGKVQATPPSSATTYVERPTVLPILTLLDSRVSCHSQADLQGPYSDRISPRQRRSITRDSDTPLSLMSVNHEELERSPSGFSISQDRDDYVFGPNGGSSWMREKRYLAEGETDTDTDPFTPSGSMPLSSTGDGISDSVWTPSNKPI
# B1: human KCNQ2/KvLR1 (other)
# chain: MVQKSRNGGVYPGPSGEKKLKVGFVGLDPGAPDSTRDGALLIAGSEAPKRGSILSKPRAGGAGAGKPPKRNAFYRKLQNFLYNVLERPRGWAFIYHAYVFLLVFSCLVLSVFSTIKEYEKSSEGALYILEIVTIVVFGVEYFVRIWAAGCCCRYRGWRGRLKFARKPFCVIDIMVLIASIAVLAAGSQGNVFATSALRSLRFLQILRMIRMDRRGGTWKLLGSVVYAHSKELVTAWYIGFLCLILASFLVYLAEKGENDHFDTYADALWWGLITLTTIGYGDKYPQTWNGRLLAATFTLIGVSFFALPAGILGSGFALKVQEQHRQKHFEKRRNPAAGLIQSAWRFYATNLSRTDLHSTWQYYERTVTVPMYSSQTQTYGASRLIPPLNQLELLRNLKSKSGLAFRKDPPPEPSPSKGSPCRGPLCGCCPGRSSQKVSLKDRVFSSPRGVAAKGKGSPQAQTVRRSPSADQSLEDSPSKVPKSWSFGDRSRARQAFRIKGAASRQNSEASLPGEDIVDDKSCPCEFVTEDLTPGLKVSIRAVCVMRFLVSKRKFKESLRPYDVMDVIEQYSAGHLDMLSRIKSLQSRVDQIVGRGPAITDKDRTKGPAEAELPEDPSMMGRLGKVEKQVLSMEKKLDFLVNIYMQRMGIPPTETEAYFGAKEPEPAPPYHSPEDSREHVDRHGCIVKIVRSSSSTGQKNFSAPPAAPPVQCPPSTSWQPQSHPRQGHGTSPVGDHGSLVRIPPPPAHERSLSAYGGGNRASMEFLRQEDTPGCRPPEGTLRDSDTSISIPSVDHEELERSFSGFSISQSKENLDALNSCYAAVAPCAKVRPYIAEGESDTDSDLCTPCGPPPRSATGEGPFGDVGWAGPRK
# Target: T1, human KCNQ3/KvLR2
# Assay: cell-based or functional assay
binder,measurement,value
B1,current amplitude in oocytes co-expressing KCNQ2 and KCNQ3 against oocytes injected with each channel alone (two-electrode voltage clamp),15 fold
same,shift of tail current reversal potential per 10-fold change in external K+ for KCNQ2+KCNQ3,57 mV

# — patent US7262289 (Bristol-Myers Squibb, dated 2007)
